The values that follow come from article PMC3025461.

For assay [1], the target named is S. cerevisiae Smc1 hinge protein (S480-E681), wild type (S. cerevisiae) (UniProt P32908). Nature of the assay: ITC. For orientation: ITC needs no label: the signal is the heat of the interaction.
Assay [2] deals with S. cerevisiae Smc1DD hinge protein (S480-E681; K554D, K661D) (S. cerevisiae) (UniProt P32908). Nature of the assay: ITC.
Assay [3] has as its target S. cerevisiae Smc3-FLAG hinge protein (S. cerevisiae). Nature of the assay: pull-down.

In assay [1], “S. cerevisiae Smc3 hinge protein (T495-L695), wild type (domain or fragment)” gave a Kd of 22 nM.

As for “S. cerevisiae Smc3AAA hinge protein (T495-L695; R665A, K668A, R669A) (domain or fragment)”, the Kd in assay [1] came out at 24 nM. In assay [2], this molecule came in with a dissociation constant Kd of 29 nM and a reduction in dH against wild-type Smc1/Smc3 of 4 kcal/mol.

B1: S. cerevisiae Smc1 hinge protein (S480-E681), wild type (domain or fragment)
chain: SANNQEYDLNFKLRETLVKIDDLSANQRETMKERKLRENIAMLKRFFPGVKGLVHDLCHPKKEKYGLAVSTILGKNFDSVIVENLTVAQECIAFLKKQRAGTASFIPLDTIETELPTLSLPDSQDYILSINAIDYEPEYEKAMQYVCGDSIICNTLNIAKDLKWKKGIRGKLVTIEGALIHKAGLMTGGISGDANNRWDKEE
As for B1, in assay [3], the half time was 30 min and the half-life of the hinge dimer lay in the range of 15 to 30 min.

A word on the Kd: it is a measure of binding affinity in units of concentration. The low end stands for tighter binding, the high end for weaker binding.
